# In the nanobody polyreactivity screen of Harvey et al. (2022):
# Assay: yeast display, Sf9 membrane polyspecificity reagent, FACS + sequencing; frameworks hold sequencing errors
# How it was run: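 In a synthetic yeast display library (Saccharomyces cerevisiae BJ5465), nanobody expression was induced with galactose for 36–48 hours. FACS gates were set low and high (top ~1%) using anti-HA fluorescence for expression and streptavidin fluorescence for binding of the Sf9 membrane reagent. Each polyreactivity label is drawn from the gate of origin.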
row,Sequence,polyreactivity (PSR sort gate)
1,QVQLVESGAGLVQAGGSLRLSCAASGFTFRYYAMGWYRQAPGKERELVATISASSGSTYYADSVKGRFTISRDNAKNTVYLQMNSLKPEDTAVYYGAKEPLASGWGYDYWGQGTQVTVSS,high polyreactivity
2,QVQLVESGAGLVQAGGSLRLSCAASGHTFYYNTMGLYRQAPGKERELVAVISWSGSRTYYADSVKGRFTISRDYAKNTVYLQMNSLKPEDTAVSYCNAVYSHRREYWGEGTQVTVSS,high polyreactivity
3,QVQLVESGAGLVQAGGSLRLSCAASGITFAYYAMGWYRQAPGKERELVAAIRGGTNTYYADSVKGSYTISRDNAKNTVYFLMNSLKPEDTAVYYCAARRSSHWFTYDYWGQGTLVTVSS,high polyreactivity
4,QVQLVESGAGLVQAGGSLRLSCAASGITFRGYAMGWYRQAPGKERELVAAISSRGGSTYYADSVMGRFTISRDNAKNTVYLQMNSLKPEDTAVYYCNAVSGLYFTYTYDYWGQGTQVTVSS,high polyreactivity
5,QVQLVESGAGLVQAGGSLRLSCAASGRIFYWYAMGWYRQAPGKERELVAAIRRRVGSTYYADSVKGRFTISRDNAKNTVYLQMNSLKPEDTAVYYCAAVITSDGARYDYWGQGTQVTVSS,high polyreactivity
6,QVQLVESGAGLVQAGGSLRLSCAASGRIVYYVMGWYRQAPAKEMELVAAISTRGGSTYYADSVKGRFTISRDNAKNTVYLQINSLKPEDTAVYYCAASSLLTRFNSWGQGTQVTVSS,high polyreactivity
7,QVQLVESGAGLVQAGGSLRLSCAASGRTFGSNAMGWYRQAPGKERELVAAITRGGSTNYADSVKGRFTISRDNAKNTVYLQMNSLKPEDTAVYYCAKRSYYRYRYYYWGQGTQVSVSS,high polyreactivity
8,QVQLVESGAGLVQAGGSLRLSCAASGRTFRPNPMGWYRPAPWKDRELVASITSGGRTNYADSVKGRFTISRDNAKNTVYLQMNSLKPEDTAVYYCAADHYHGYWKYDYWGQGTQVTVSS,low polyreactivity
9,QVQLVESGAGLVQAGGSLRLSCAASGRTFTSNSMGLYIQAPGKERELVASISFRGGRTYYADSVKVRFTISRDNAKNTVYLQMNSLKPEDTAVYYCVSGTKRTGYGYWGQGTLVTVSS,high polyreactivity
10,QVQLVESGAGLVQAGGSLRLSCAASGSIFSPYDMGWYRPAPGKERELVAAISRSGRTHYADSVKGRFTISRDNAKNTVYLQMNSLKPEDTAVYYCAAGVVSGYYYWGHGTQVTVSS,high polyreactivity
11,QVQLVESGAGLVQAGGSLRLSCAASGSIFYDYAMGVYRQAPGKERELVAAISSSGITYYADSVKGRFTISRDNAKNTVYLQMNSLKPVDTAVYYCNARSYLRDYYYWGQGTQVTVSS,high polyreactivity
12,QVQLVESGAGLVQAGGSLRLSCAASGSILKKYGMGLSRQAPGKERELVARISKSGGSTFYADSVKGRFTISRDNAKNTVYLQMNSLKPEDTAVYYCATLKYPYATSQGYDYWGQGTQVTVSS,high polyreactivity
13,QVQLVESGAGLVQAGGSLRLSCAASGSTCPGNAMGWYRQAPGKERELVAVINSGGGTNYADSVKGRFTISRDNAKNTVYFQINSLNPEDTAVYYCAKGYRRSFIGYWYLKYGYWGQGTQVTVSS,high polyreactivity
14,QVQLVESGAGLVQAGGSLRLSCAASGSTFDAYALGWSRPAPGKERELVAGISSGGSYEFADSVKGRFTISRDYAKNTVYVQMNSLKPEDTAVYYCAADSRQSDYYYQPTKFDYWGQGTQVTVSS,low polyreactivity
15,QVQLVESGAGLVQAGGSLRLSCAASGSTFHYYAMGLYRQAPGKERELVATITWRGGFTYYADSVKGRFTISRDNAKNTVYLQMNSLKPEDTAGYYCTDYYVRRYRDPRLYYWGQGTQVTVSS,high polyreactivity
16,QVQLVESGAGLVQAGGSLRLSCAASGSTFRPNVMGWSRQAPGKERELVAAITYSGRSTYYADSVKGRFTISRDNAKNTVYLQMNTLKPEDTAVYYCAARTWLRYCYWGQGTQVTVSS,high polyreactivity
17,QVQLVESGAGLVQAGGSLRLSCAASGSTFYINTMGLYRQAPGKEREFVAAITWSGGSTYYADSVKGRFTISRDNAKNSGYLQMNSLKPEDTAVYYSAADLYVGDMDYRGQGTQVTVSS,low polyreactivity
18,QVQLVESGAGLVQAGGSLRLSCAASGSTVAGNAMGGYRQAPGTERELVAAIDSSTGSTYYADCVKGRFTISRDNAKITVYLLMNSLKPEDTAVYYCADDQVHKREYDYWGQGTQVTVSS,low polyreactivity
19,QVQLVESGAGLVQAGGSLRLSCAASVRIFDSYAMGWSRQAPGKERELVAAITGSGGRTYYAESVKGRFTISRDNAKNTVYLQMNSQKPEYTAVYYCARALGQRRYDYWGQGTHVTVSS,high polyreactivity
20,QVQLVESGAGLVQAGGSLRLSCAAYGSIFIIYAMGWYRQAPGKERELVAAINTSGTSTYYADSVKGRFTISRDNAKNTVYLQMNSLKPEDTAVYYCAAAGRRSYKYYYWGQGTQVTVSS,high polyreactivity
21,QVQLVESGAGLVQAGGSLRLSCADSGSIFYYYAMGWYRQAPGKEREFGAAIRESVGSTYYADSVKGSFTISRDNAKNTVYLQMNSRKPEDTAVYYCAVRRPRRNYNYPYDYWGQGTQVTVSS,low polyreactivity
22,QVQLVESGAGLVQAGGSLRLSCAPSGRIFDKYAMGWYRQAPGTERELVAAIDWSGGSTYYADSVKGRFTISRDNAKNTVYLQMNCLKPEDTAVYYCAAYWYYEDGQSEARLYGYDYWGQGTQVTVSS,low polyreactivity

row,Sequence,polyreactivity (PSR sort gate)
1,QVQLVESGAGLVQAGGSLRLSCAPSGRIFTPYAMGWYRQAPGKERELVAVIRDGSTYYADSVKGRFTISRDNSKNTVYLQMNSLKPEDTAVYYCRYDIWVWWSGAYDYWGQGTQVTVSS,low polyreactivity
2,QVQLVESGAGLVQAGGSLRLSCAPSGSTFGDNAMGWYRQAPGKERELVAAISSGGGSTYYADSVKGRFTISRDNAKNTVYLQMNSLKPEDTAVYYCAADGTLTLYRYILDYWGQGTQVTVSS,low polyreactivity
3,QVQLVESGAGLVQAGGSLRLSCASSGFILTGYTMGWYRQAPGKERELVAAISWSGARTYYADSVKGRFTISRDNAKNTVYLQMNSLKPEDTAVYYCARDYYRPTQRYDYWGQGTQVTVSS,high polyreactivity
4,QVQLVESGAGLVQAGGSLRLTCAASGSTFNRYVMGWYRQAPGKERDFVATISQGGGSTYYADSVKGRFTISRDNAKNTVYLHMNSLKPDVTAVYYCAAVSTRQYRYPHEYWGQGTQVTVSS,high polyreactivity
5,QVQLVESGAGLVQAGGSLRVSCAASGRTFAHYAMGWYRQAPGKERELVAAISSGASTNYADSVKGRFTISRDNAKNTVYLQMNSLKPEDTAVYYCAKQAKYHQGTYDYWGQGTQVTVSS,low polyreactivity
6,QVQLVESGAGLVQAGGSLRVSCAASGSTFDSYAMGLYRQAPGKERELVAAITNGGSTYYADSVKGRFTISRDHAKNTVYLQMNRLKPEDTAVYDCATEDYLLDYLYDYWGPGTQVTVSS,low polyreactivity
7,QVQLVESGAGLVQAGGSLSLSCAASGSIWLYAMGWYRQAPGKEREFVAAITRRGSSTYYADSVKGRFTISRDNAKNPVLLQMNSLKPEDTAVYYCAGVSQYGKWRGDYWGQGTQVTVSS,high polyreactivity
8,QVQLVESGAGLVQAGGSRRLSCAASGSIFGVNAMGGYRQAPGKERELVASITGGDSTNYADSVKGRFTISRDNAKNTVYLQMNSLKPEDTAFYYCAKDHYYRYEEGDYWGQGTQVTVSS,low polyreactivity
9,QVQLVESGAGLVQAGRSLRLSCAASGRTLSRFAMGGYRQAPGKERELVAGITSGGDTRTYYADSVKGRFTISRDYAKNTVYLQMNSLKPEDPAVYYCWGQVTQVTVSS,low polyreactivity
10,QVQLVESGARLVQAGGSLRLRCAPSGSIFDGYAMGWYRQAPGKEREFVAAISKGGTRTYYADSVKGRFTISRDNAKNTVYLQMNSLIPEDSAVFYCNAYYRREPDDGDYDYWGQGTQVTVSS,high polyreactivity
11,QVQLVESGEGLVQAGGSLRLSCAASGITFDAYTMGWYRQAPGKERELVAAITWSSTSTYYADSVKGRFTISRDNAKNTVYLQMNSLKPEDTAVFYCAAYRVGDYYWGQGTKVTVSS,low polyreactivity
12,QVQLVESGGALDQAGGSLRLSCAASGSTFYYYAMGWYRQAPGKERELVAAISTSDGSTYYADSVKGRFTISRDNAKNTVYLQMNSLKPEDTAVYYCAADSHDRFPSYYYWGQGTQVTVSS,low polyreactivity
13,QVQLVESGGALGQAGGRLRLTCAASGSTFSIYGMGWYRQAHGKEREFVAALRTSGGRTYADSVKGRFTISRDNAKNTVYLQLNSLKPDDPAVDYCAAHVNYIYDWGQGTQVTVSS,high polyreactivity
14,QVQLVESGGALHQAGGSLRLNCAASGRTFGANAMGWYRQAPGKERELVAAISSSDDSTYYADSVKGRFTISRDNAKKTVYLQMNSLKPEDTAVYYCAAEDVYRQLDYWGQGTQVTVSS,low polyreactivity
15,QVQLVESGGALVKAGGSLRLSCAASGYIFYGYAMGRYRQAPGKEWELVAAITVRGGSTYYADSVKGRFTISRDNAKNTVYLQMNSLKPEDTAVYYCAAAPQFTFGVGYWGQGTQVTVSS,low polyreactivity
16,QVQLVESGGALVQAGGSLGLICAASGSIFRWYAMGWYRQAPGKERELVASINSSGDRTYYADSVKGRFTISRDKAKKTVFLQMNSLNPEDTAVYNCAAQISVKVDFWGQGTQVTVSS,high polyreactivity
17,QVQLVESGGALVQAGGSLRFSCASSGRIFSSNTMGWYRQAPGKERELVAAISRGSITYYAHSVKGRFTISRDNAKNTVYLQMNSLKPEDTAVYYCAAGVGLDNYGYGYWGQGTQVTVSS,low polyreactivity
18,QVQLVESGGALVQAGGSLRLICAASGGTFTNYAMGWYSQAPGKERELVAAITDSGATTYYADSVKGRFTNSRDNAKNTVYLQMNSLKPEDTAVYYCNAELDLYTDFDYWGQGTQVTVSS,low polyreactivity
19,QVQLVESGGALVQAGGSLRLSCAASGCIFAPYAMGWYRQAPGKERELVADITEDTGITYYADSVKGRFTISRDNAKNNVYLHMNSLKPVDTAVYYCNAEFYFYDYWGQGTQVTVSS,low polyreactivity
20,QVQLVESGGALVQAGGSLRLSCAASGFIFFQYAMGWYRQAPGKERELVAAISGSGVTTYYADSVKGRFTISRDNAKNTVYLQMNSLKPEDTAVYYCNAALRWKYDWGQGTQVTVSS,low polyreactivity
21,QVQLVESGGALVQAGGSLRLSCAASGFTFLIYAKGWYIQAPGKERELVAAITWRGSGTYYADCVKGRFTISRDNGQNTVYLQMNSLKPEDSAVYYCAARTARRTYDYWGQGTQVTVSS,low polyreactivity
